The values that follow come from CN112759647A.

Numbering of substitutions follows the chain as printed.

The target of test [1] is 人PD-L1 on 293T-h-PDL1 cells (HEK293 stably expressing PD-L1) (human) (UniProt Q9NZQ7). The test is described as follows: FACS, hybridoma supernatant on 293T-h-PDL1 cells.
The target in test [2] is 人PD-L1胞外区与人IgG1-FC的融合蛋白 (human) (UniProt Q9NZQ7). Briefly: FACS blocking: supernatant premixed with 500 ng PD-L1-hFc; competitor PD-1 on 293T-h-PD1 cells.
Test [3] has as its target 人PD-L1 on 293T-h-PDL1 cells (HEK293 stably expressing PD-L1) (human) (UniProt Q9NZQ7). Briefly: FACS, antibody on 293T-h-PDL1 cells.

B1: 鼠抗体15G10 (antibody, from another filing, V domains shown)
VH: QVQLKQSGPELVKPGASVKTSCKASGYTFTNYVVHWVKQNPGQGLEWIGYVNPNNDGTIFNEKFKDKAILTSDKSSSTAYMELSSLTSEDSAVYYCARSPFAHWGQGTLVTVSA
VL: QIVLTQSPASLTVSLGQRATISCSASESVDFYGTSLMQWFQQKPGQPPKLLVYTASNVDSEVPARFSGSGSGTDFSLNIHPVEEDDIAMYFCHQTRKVPYTFGGGTKLEIK
As for B1, the EC50 in test [1] turned out to be 1.45 µg/mL. In test [2], the IC50 is 4 µg/mL.

B2: 鼠抗体28B1 (antibody, from another filing, V domains shown)
VH: QVQLKQSGAELVKPGASVMLSCTASAFNIDDTYIHWVKQRPEQGLEWIGRIDPANGNTDYDPECQGKATITTDMSSNTAYLQLSSLTSEDTAVYFCARGLRLPGLVYWGRGTLVTVSA
VL: DIQMTQTTSSLSASLGDRVTISCRASQDISNYLNWYQQKPDGTVKLLIYYTSILYSGVPSRFSGSGSGTDYSLTINTLEEEDIATYFCQQGNTLPWTFGGGTKLEIIR
In test [1], B2 yielded an EC50 of 0.39 µg/mL. The molecule also showed a half-inhibitory concentration (IC50) in test [2] of 2.31 µg/mL.

B3: 鼠抗体22B10 (antibody, from another filing, V domains shown)
VH: QVQLKQSGAELVKPGASVELSCTASGFNIEDTYLHWVNQRPEQGLEWIGRIDPANGNTYYDPKFQGKATITTDTSSNTAYLQLSRLTSEDTAVYYCARGLRLPGFPYWGQGTLVTVSA
VL: B2 VL with T8P, N34S, Y55H, T74A, N76S, T77N, E79D, E80Q, I107K
On to B3, for which the concentration giving a half-maximal response (EC50) in test [1] stood at 0.517 µg/mL. In test [2], this molecule came in with an IC50 of 4.31 µg/mL.

B4: 鼠抗体13C9 (antibody, from another filing, V domains shown)
VH: QVQLKQSGAGLVKPGASVKLSCKASGYIFTEYIIHWVKQRSGQGLEWIGWFYPGSDNIKYNEKFKDKATLTADKSSSTVYMELSRLTSEDSAVYFCARHETGYFFDYWGQGTTLTVSS
VL: DIVITQSPAIMSASPGEKVTMTCSASSSVSKMNWYQQKSGTSPKRWIYDTSKLASGVPSRFSGSGSGTSYSLTISSMEAEDAATYYCQQWSSNPLTFGSGTKLELKR
Take B4: the EC50 turned out to be 0.44 µg/mL in test [1] and 0.49 µg/mL in test [3]. Also, the IC50 in test [2] came out at 1.95 µg/mL.

B5: 鼠抗体8A2 (antibody, from another filing, V domains shown)
VH: QVQLKQSGPGLVAPSQSLSITCTVSGFSLTGYGVNWVRQPPGKGLEWLGKIWGDGITDYNSALKSRLSISKDNSKSQVFLKMNSLQTDDTARYYCARDVMDYWGQGTSVTVSS
VL: QIVLTQSPAIMSASPGEKVTMTCSASSSISYMHWYQQKPGTSPKRWIYDTSKLASGVPARFSGSESGTSYSLTISSMEAEDAATYYCHHRSPYPTFGAGTKLELK
In turn, B5 returned a 50% effective concentration (EC50) in test [1] of 0.336 µg/mL. The IC50 in test [2] turned out to be 5.17 µg/mL.
